Measured values taken from article PMC11231019, “A pH-dependent shift of redox cofactor specificity in a benzyl alcohol dehydrogenase of aromatoleum aromaticum EbN1” (Applied Microbiology and Biotechnology, 2024).
Blank lines part the entries; values can stand above or below the molecule they belong to.

Columns and labels:
[1] = target: T1, BaDH (benzyl alcohol dehydrogenase) (Aromatoleum aromaticum, UniProt Q5P459); assay: photometric NADH formation, […] nm; Michaelis-Menten with substrate inhibition fit; type: biochemical; details: substrate inhibition constant; NAD+, pH 8.0, 30 °C
T1 construct: gene adh; full-length, C-terminal Twin-Strep-tag kept, expressed in E. coli BL21(DE3), Strep-tactin purified; Zn (catalytic) and Zn/Fe (structural)
T1 sequence (Q5P459 1-362): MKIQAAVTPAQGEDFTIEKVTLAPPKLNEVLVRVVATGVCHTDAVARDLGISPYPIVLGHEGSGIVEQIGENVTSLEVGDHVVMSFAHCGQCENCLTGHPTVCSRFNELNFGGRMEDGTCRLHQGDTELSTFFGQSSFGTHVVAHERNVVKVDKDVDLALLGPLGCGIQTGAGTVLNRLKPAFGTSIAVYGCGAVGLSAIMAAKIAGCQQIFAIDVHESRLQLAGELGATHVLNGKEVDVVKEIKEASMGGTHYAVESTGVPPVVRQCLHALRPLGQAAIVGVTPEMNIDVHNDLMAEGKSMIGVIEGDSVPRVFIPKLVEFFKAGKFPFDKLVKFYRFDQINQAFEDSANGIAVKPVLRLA

[2] = substrate: NC(=O)C1=CN([C@@H]2O[C@H](COP(=O)(O)OP(=O)(O)OC[C@H]3O[C@@H](n4cnc5c(N)ncnc54)[C@H](OP(=O)(O)O)[C@@H]3O)[C@@H](O)[C@H]2O)C=CC1; assay: photometric NADPH consumption; Hill fit with substrate inhibition; type: biochemical, Aromatoleum aromaticum; details: apparent, fixed benzaldehyde, pH 5.5, 30 °C, cooperative, Hill n 1.38, Kis constrained to Km, kcat called overestimated by authors, varied: cofactor
Excerpt: photometric NADPH consumption; Hill fit with substrate inhibition on BaDH (benzyl alcohol dehydrogenase)

purified protein [3] = substrate: NC(=O)C1=CN([C@@H]2O[C@H](COP(=O)(O)OP(=O)(O)OC[C@H]3O[C@@H](n4cnc5c(N)ncnc54)[C@H](O)[C@@H]3O)[C@@H](O)[C@H]2O)C=CC1; assay: purified protein; type: biochemical, Aromatoleum aromaticum; details: apparent, fixed benzaldehyde, pH 7.0, 30 °C, extrapolated, saturation not reached, probably underestimated per authors (text: no reliable constants), varied: cofactor
purified protein [4] = substrate: OCc1ccccc1; assay: purified protein; type: biochemical, Aromatoleum aromaticum; details: apparent, oxidation with NAD+, pH 8.0, 30 °C, substrate inhibition, kcat called overestimated by authors
[5] = substrate: O=Cc1ccccc1; assay: photometric NADH consumption; Michaelis-Menten with substrate inhibition fit; type: biochemical, Aromatoleum aromaticum; details: apparent, reduction with NADH, pH 7.0, 30 °C, Kis constrained to >= Km, kcat called overestimated by authors
Excerpt: photometric NADH consumption; Michaelis-Menten with substrate inhibition fit on BaDH (benzyl alcohol dehydrogenase)

[6] = substrate: NC(=O)c1ccc[n+]([C@@H]2O[C@H](COP(=O)(O)OP(=O)(O)OC[C@H]3O[C@@H](n4cnc5c(N)ncnc54)[C@H](OP(=O)(O)O)[C@@H]3O)[C@@H](O)[C@H]2O)c1; assay: photometric NADPH formation; Hill fit with substrate inhibition; type: biochemical, Aromatoleum aromaticum; details: apparent, fixed benzyl alcohol, pH 6.5, 30 °C, cooperative, Hill n 2.44, Kis constrained to Km, kcat called overestimated by authors, varied: cofactor
Excerpt: photometric NADPH formation; Hill fit with substrate inhibition on BaDH (benzyl alcohol dehydrogenase)

[7] = substrate: NC(=O)c1ccc[n+]([C@@H]2O[C@H](COP(=O)(O)OP(=O)(O)OC[C@H]3O[C@@H](n4cnc5c(N)ncnc54)[C@H](O)[C@@H]3O)[C@@H](O)[C@H]2O)c1; assay: photometric NADH formation; Michaelis-Menten fit; type: biochemical, Aromatoleum aromaticum; details: apparent, fixed benzyl alcohol, pH 8.0, 30 °C, varied: cofactor
Excerpt: photometric NADH formation; Michaelis-Menten fit on BaDH (benzyl alcohol dehydrogenase)

- Kis [1]: 4.37 mM
Molecule: OCc1ccccc1 [BAlc, benzyl alcohol]

B1: BaDH (benzyl alcohol dehydrogenase) (Aromatoleum aromaticum EbN1) (protein)
chain: T1 sequence (Q5P459 1-362)
notes: full-length, C-terminal Twin-Strep-tag kept, expressed in E. coli BL21(DE3), Strep-tactin purified; Zn (catalytic) and Zn/Fe (structural)
- K0.5 [2]: 3.42 mM
- Vmax [2]: 159 µmol/min/mg
- kcat [2]: 110 s⁻¹
- kcat/Km [2]: 32000 M⁻¹ s⁻¹
- Km (purified protein [3]): 3690 µM
- Vmax (purified protein [3]): 320 µmol/min/mg
- kcat (purified protein [3]): 222 s⁻¹
- kcat/Km (purified protein [3]): 60000 M⁻¹ s⁻¹
- Km (purified protein [4]): 3620 µM
- Vmax (purified protein [4]): 410 µmol/min/mg
- kcat (purified protein [4]): 693 s⁻¹
- kcat/Km (purified protein [4]): 191000 M⁻¹ s⁻¹
- Km [5]: 1780 µM
- Vmax [5]: 345 µmol/min/mg
- kcat [5]: 239 s⁻¹
- kcat/Km [5]: 134000 M⁻¹ s⁻¹
- K0.5 [6]: 2.39 mM
- Vmax [6]: 54.1 µmol/min/mg
- kcat [6]: 37.5 s⁻¹
- kcat/Km [6]: 16000 M⁻¹ s⁻¹
- Km [7]: 1670 µM
- Vmax [7]: 84.2 µmol/min/mg
- kcat [7]: 58.4 s⁻¹
- kcat/Km [7]: 35000 M⁻¹ s⁻¹
